Data on 125 sequences can be found in the supplement of paper PMC9112550, “Optimization of the antimicrobial peptide Bac7 by deep mutational scanning” (BMC Biology, 2022).
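Note: peptides expressed intracellularly from a pBAD plasmid library in pooled LB shake-flask culture, induced with 0.3% L-arabinose, DNA abundance read by NGS, three biological replicates, DESeq2 with apeglm shrinkage.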

The test system of the data set is Escherichia coli TOP10. As to the kind of experiment: shrunken log2 fold change of peptide-encoding DNA abundance (4.5 h post-induction vs induction); higher = less antimicrobial activity (less host growth inhibition). Particulars: time post-induction: 4.5 h; library: site-saturation at positions 5, 18, 19, 20.
Regarding RRIRDRPPRLPRPRPRPEMCPRP, the “shrunken log2 fold change” value worked out at 0.0536.

In the case of RRIRSRPPRLPRPRPRPTGKPRP, the “shrunken log2 fold change” value amounted to 0.274.

On to RRIRIRPPRLPRPRPRPGESPRP, for which the “shrunken log2 fold change” value was -0.0125.

For RRIRNRPPRLPRPRPRPVRWPRP, the “shrunken log2 fold change” value came out at 0.703.

With RRIRSRPPRLPRPRPRPMKVPRP, the “shrunken log2 fold change” value was -0.0404.

With RRIRVRPPRLPRPRPRPKQKPRP, the “shrunken log2 fold change” value is -0.0521.

For the sequence RRIRIRPPRLPRPRPRPCYAPRP, the “shrunken log2 fold change” value was -0.68.

RRIRYRPPRLPRPRPRPNAIPRP: the “shrunken log2 fold change” value was -0.0737.

Turning to RRIRWRPPRLPRPRPRPFDGPRP, the “shrunken log2 fold change” value was -0.0363.

RRIRARPPRLPRPRPRPQLMPRP: the “shrunken log2 fold change” value amounted to 0.125.

RRIRARPPRLPRPRPRPAGCPRP: the “shrunken log2 fold change” value was 0.648.

RRIRDRPPRLPRPRPRPGAHPRP: the “shrunken log2 fold change” value came to 0.651.

In the case of RRIRQRPPRLPRPRPRPIMKPRP, the “shrunken log2 fold change” value was -0.0798.

As to RRIRNRPPRLPRPRPRPESDPRP, the “shrunken log2 fold change” value came to 0.648.

For the sequence RRIRGRPPRLPRPRPRPIDNPRP, the “shrunken log2 fold change” value was 0.186.

RRIRERPPRLPRPRPRPEWTPRP: the “shrunken log2 fold change” value was determined as 0.0896.

For the sequence RRIRKRPPRLPRPRPRPMKHPRP, the “shrunken log2 fold change” value is -0.156.

Take RRIRHRPPRLPRPRPRPDSSPRP: the “shrunken log2 fold change” value worked out at 0.00209.

In the case of RRIRKRPPRLPRPRPRPPGAPRP, the “shrunken log2 fold change” value was 1.3.

As for RRIRLRPPRLPRPRPRPIAEPRP, the “shrunken log2 fold change” value was 0.591.

As to RRIRDRPPRLPRPRPRPEQSPRP, the “shrunken log2 fold change” value is 0.964.

Consider RRIRRRPPRLPRPRPRPKDWPRP, for which the “shrunken log2 fold change” value amounted to 0.36.

Regarding RRIRNRPPRLPRPRPRPVPPPRP, the “shrunken log2 fold change” value came out at 0.234.

For the sequence RRIRFRPPRLPRPRPRPLRAPRP, the “shrunken log2 fold change” value amounted to 0.821.

Regarding RRIRCRPPRLPRPRPRPWKFPRP, the “shrunken log2 fold change” value is -0.318.

Consider RRIRSRPPRLPRPRPRPSRKPRP, for which the “shrunken log2 fold change” value is -0.0434.

On to RRIRRRPPRLPRPRPRPVAIPRP, for which the “shrunken log2 fold change” value was determined as 0.687.

For the sequence RRIRNRPPRLPRPRPRPVWLPRP, the “shrunken log2 fold change” value came out at 0.0895.

Take RRIRLRPPRLPRPRPRPDALPRP: the “shrunken log2 fold change” value was -0.354.

As to RRIRGRPPRLPRPRPRPSPVPRP, the “shrunken log2 fold change” value was found to be 0.585.

RRIRSRPPRLPRPRPRPSFWPRP: the “shrunken log2 fold change” value amounted to 0.079.

As for RRIRQRPPRLPRPRPRPACPPRP, the “shrunken log2 fold change” value was determined as 0.0154.

For RRIRHRPPRLPRPRPRPPNAPRP, the “shrunken log2 fold change” value came out at 0.257.

For RRIRQRPPRLPRPRPRPGTHPRP, the “shrunken log2 fold change” value is -0.00939.

Turning to RRIRYRPPRLPRPRPRPPAHPRP, the “shrunken log2 fold change” value was 0.178.

For the sequence RRIRRRPPRLPRPRPRPHNPPRP, the “shrunken log2 fold change” value was -0.0181.

With RRIRGRPPRLPRPRPRPIMAPRP, the “shrunken log2 fold change” value turned out to be 0.401.

Consider RRIRWRPPRLPRPRPRPIMHPRP, for which the “shrunken log2 fold change” value was -0.174.

As for RRIRHRPPRLPRPRPRPGKEPRP, the “shrunken log2 fold change” value was -0.0977.

Consider RRIRTRPPRLPRPRPRPISKPRP, for which the “shrunken log2 fold change” value is -0.17.

RRIRTRPPRLPRPRPRPTWKPRP: the “shrunken log2 fold change” value was 0.0204.

As to RRIRHRPPRLPRPRPRPDHAPRP, the “shrunken log2 fold change” value came out at 0.0557.

As to RRIRCRPPRLPRPRPRPADKPRP, the “shrunken log2 fold change” value is -0.0716.

As for RRIRCRPPRLPRPRPRPWAWPRP, the “shrunken log2 fold change” value was -0.105.

RRIRLRPPRLPRPRPRPTINPRP: the “shrunken log2 fold change” value was -0.524.

Consider RRIRTRPPRLPRPRPRPNIEPRP, for which the “shrunken log2 fold change” value is 0.105.

For RRIRVRPPRLPRPRPRPRLFPRP, the “shrunken log2 fold change” value is 0.447.

With RRIRTRPPRLPRPRPRPCHLPRP, the “shrunken log2 fold change” value came out at 0.0039.

RRIRGRPPRLPRPRPRPCKLPRP: the “shrunken log2 fold change” value is -0.378.

As to RRIRWRPPRLPRPRPRPKGYPRP, the “shrunken log2 fold change” value stood at 0.0648.

For the sequence RRIRRRPPRLPRPRPRPDRWPRP, the “shrunken log2 fold change” value was found to be 0.957.

For the sequence RRIRDRPPRLPRPRPRPTVCPRP, the “shrunken log2 fold change” value was 0.662.

Consider RRIRCRPPRLPRPRPRPVGEPRP, for which the “shrunken log2 fold change” value is 0.0624.

As for RRIRDRPPRLPRPRPRPSSMPRP, the “shrunken log2 fold change” value is -0.292.

Regarding RRIRYRPPRLPRPRPRPMYKPRP, the “shrunken log2 fold change” value was -0.28.

On to RRIRGRPPRLPRPRPRPKQFPRP, for which the “shrunken log2 fold change” value came to 0.566.

As for RRIRGRPPRLPRPRPRPWEEPRP, the “shrunken log2 fold change” value was -0.0105.

Turning to RRIRCRPPRLPRPRPRPPAIPRP, the “shrunken log2 fold change” value was found to be 0.532.

In the case of RRIRNRPPRLPRPRPRPWKTPRP, the “shrunken log2 fold change” value is 0.0489.

For RRIRDRPPRLPRPRPRPATYPRP, the “shrunken log2 fold change” value was -0.141.

Consider RRIRIRPPRLPRPRPRPMFDPRP, for which the “shrunken log2 fold change” value was -0.0483.

Take RRIRRRPPRLPRPRPRPVMLPRP: the “shrunken log2 fold change” value was -0.0342.

As to RRIRKRPPRLPRPRPRPHCFPRP, the “shrunken log2 fold change” value was determined as 0.0684.

RRIRPRPPRLPRPRPRPLCQPRP: the “shrunken log2 fold change” value was -0.116.

Regarding RRIRQRPPRLPRPRPRPASGPRP, the “shrunken log2 fold change” value is -0.00438.

RRIRLRPPRLPRPRPRPGVSPRP: the “shrunken log2 fold change” value was -0.161.

As to RRIRYRPPRLPRPRPRPHTQPRP, the “shrunken log2 fold change” value was -1.1.

On to RRIRDRPPRLPRPRPRPCYAPRP, for which the “shrunken log2 fold change” value is 0.326.

On to RRIRMRPPRLPRPRPRPTLKPRP, for which the “shrunken log2 fold change” value turned out to be 0.501.

As for RRIRFRPPRLPRPRPRPCFSPRP, the “shrunken log2 fold change” value is -0.759.

On to RRIRSRPPRLPRPRPRPALQPRP, for which the “shrunken log2 fold change” value amounted to 0.441.

For RRIRSRPPRLPRPRPRPKKDPRP, the “shrunken log2 fold change” value was found to be 0.104.

For RRIRGRPPRLPRPRPRPEEGPRP, the “shrunken log2 fold change” value came out at 0.0303.

Regarding RRIRQRPPRLPRPRPRPRWAPRP, the “shrunken log2 fold change” value is 0.144.

For the sequence RRIRVRPPRLPRPRPRPYDDPRP, the “shrunken log2 fold change” value is -0.000921.

Consider RRIRLRPPRLPRPRPRPWWKPRP, for which the “shrunken log2 fold change” value was -0.198.

For RRIRKRPPRLPRPRPRPSWEPRP, the “shrunken log2 fold change” value is 0.153.

In the case of RRIRSRPPRLPRPRPRPGRKPRP, the “shrunken log2 fold change” value stood at 0.133.

On to RRIRERPPRLPRPRPRPPVMPRP, for which the “shrunken log2 fold change” value came out at 0.0499.

In the case of RRIRVRPPRLPRPRPRPPPMPRP, the “shrunken log2 fold change” value came out at 0.641.

Regarding RRIRGRPPRLPRPRPRPLACPRP, the “shrunken log2 fold change” value came to 0.975.

On to RRIRCRPPRLPRPRPRPWFNPRP, for which the “shrunken log2 fold change” value is -1.12.

Consider RRIRNRPPRLPRPRPRPSVRPRP, for which the “shrunken log2 fold change” value is -0.00578.

With RRIRLRPPRLPRPRPRPHTAPRP, the “shrunken log2 fold change” value was -0.00187.

Take RRIRWRPPRLPRPRPRPSWLPRP: the “shrunken log2 fold change” value is -0.167.

Take RRIRWRPPRLPRPRPRPMCLPRP: the “shrunken log2 fold change” value was -0.0933.

On to RRIRTRPPRLPRPRPRPSMGPRP, for which the “shrunken log2 fold change” value was -0.22.

For RRIRIRPPRLPRPRPRPNLVPRP, the “shrunken log2 fold change” value was -0.175.

Take RRIRNRPPRLPRPRPRPKAIPRP: the “shrunken log2 fold change” value was -0.0372.

Take RRIRNRPPRLPRPRPRPWKFPRP: the “shrunken log2 fold change” value was -0.0447.

Consider RRIRYRPPRLPRPRPRPPFRPRP, for which the “shrunken log2 fold change” value is -0.0932.

On to RRIRTRPPRLPRPRPRPPQWPRP, for which the “shrunken log2 fold change” value came out at 0.274.

Take RRIRIRPPRLPRPRPRPLCAPRP: the “shrunken log2 fold change” value is -0.183.

As to RRIRGRPPRLPRPRPRPWFHPRP, the “shrunken log2 fold change” value is -0.121.

On to RRIRDRPPRLPRPRPRPAWWPRP, for which the “shrunken log2 fold change” value worked out at 0.388.

Turning to RRIRLRPPRLPRPRPRPGFDPRP, the “shrunken log2 fold change” value is 0.137.

As to RRIRERPPRLPRPRPRPFCQPRP, the “shrunken log2 fold change” value was -0.528.

RRIRIRPPRLPRPRPRPDNCPRP: the “shrunken log2 fold change” value was -0.162.

For RRIRMRPPRLPRPRPRPQYWPRP, the “shrunken log2 fold change” value was -0.194.

On to RRIRKRPPRLPRPRPRPFKKPRP, for which the “shrunken log2 fold change” value is 0.00557.

Consider RRIRARPPRLPRPRPRPNMIPRP, for which the “shrunken log2 fold change” value was -0.194.

As for RRIRFRPPRLPRPRPRPWTIPRP, the “shrunken log2 fold change” value was -0.238.

For the sequence RRIRWRPPRLPRPRPRPMAWPRP, the “shrunken log2 fold change” value is -0.0156.

For RRIRFRPPRLPRPRPRPYWKPRP, the “shrunken log2 fold change” value is -0.0922.

In the case of RRIRKRPPRLPRPRPRPDDNPRP, the “shrunken log2 fold change” value was 1.02.

As to RRIRDRPPRLPRPRPRPDMNPRP, the “shrunken log2 fold change” value was found to be 0.287.

As for RRIRGRPPRLPRPRPRPIGTPRP, the “shrunken log2 fold change” value was 0.334.

In the case of RRIRVRPPRLPRPRPRPKFVPRP, the “shrunken log2 fold change” value came out at 0.11.

RRIRTRPPRLPRPRPRPKFNPRP: the “shrunken log2 fold change” value is -0.375.

On to RRIRRRPPRLPRPRPRPSHRPRP, for which the “shrunken log2 fold change” value is -0.00626.

With RRIRLRPPRLPRPRPRPRLDPRP, the “shrunken log2 fold change” value amounted to 0.363.

For RRIRSRPPRLPRPRPRPGPNPRP, the “shrunken log2 fold change” value was -0.0665.

Take RRIRDRPPRLPRPRPRPDPKPRP: the “shrunken log2 fold change” value was 0.189.

Consider RRIRCRPPRLPRPRPRPVAQPRP, for which the “shrunken log2 fold change” value was determined as 0.159.

As to RRIRSRPPRLPRPRPRPTDQPRP, the “shrunken log2 fold change” value amounted to 0.16.

In the case of RRIRPRPPRLPRPRPRPEYMPRP, the “shrunken log2 fold change” value was -0.193.

With RRIRVRPPRLPRPRPRPDICPRP, the “shrunken log2 fold change” value stood at 0.221.

Turning to RRIRLRPPRLPRPRPRPDTWPRP, the “shrunken log2 fold change” value was 0.0224.

In the case of RRIRRRPPRLPRPRPRPIQPPRP, the “shrunken log2 fold change” value is -0.0245.

Take RRIRCRPPRLPRPRPRPDNIPRP: the “shrunken log2 fold change” value is -0.0703.

With RRIRWRPPRLPRPRPRPDLYPRP, the “shrunken log2 fold change” value came out at 0.0586.

Regarding RRIRLRPPRLPRPRPRPMECPRP, the “shrunken log2 fold change” value was -0.489.

Regarding RRIRLRPPRLPRPRPRPDYHPRP, the “shrunken log2 fold change” value was -0.576.

Take RRIRPRPPRLPRPRPRPKEQPRP: the “shrunken log2 fold change” value was determined as 0.183.

As to RRIRQRPPRLPRPRPRPSNPPRP, the “shrunken log2 fold change” value stood at 0.0169.
